From paper PMC3074150

Tests used:
[1] = target: δ2K242A (Streptococcus pyogenes plasmid pSM19035)
[2] = target: δ2K248S (Streptococcus pyogenes plasmid pSM19035)
[3] = target: δ2K259A/K260A (Streptococcus pyogenes plasmid pSM19035)

## δ2K242A (enzyme)
[1]
  stoichiometry N: 2

## δ2K248S (enzyme)
[2]
  stoichiometry N: 2

## δ2K259A/K260A (enzyme)
[3]
  stoichiometry N: 2
